{"source": "paper PMC5580684", "origin": "cited, not measured here", "molecular_target": "DNA polymerase beta (Homo sapiens) (UniProt P06746)", "note": "Where “and” joins values, the source holds several entries; their conditions need not be identical. Identical values can stand only once.", "data": [{"substance": "XRCC1 NTD (from UniProt P18887)", "values": [{"measurement": "Kd", "result": "300 µM and 100 µM"}]}]}
